Reference: publication PMC6008203

Target: PtmA2 (as used for analytical size-exclusion chromatography) (Streptomyces platensis CB00739)
Experiment: SEC

stoichiometry N: 2
Substance: PtmA2 (as used for analytical size-exclusion chromatography) (enzyme)
